Key:
Conditions in all cases: protein: commercial
[1] = target: carcinoembryonic antigen (CEA) (UniProt P06731 35-685); test: electrochemical aptasensor (DPV), aptamer release from graphene oxide; Ru(bpy)3 2+/Apt@GO probe; no remarkable signal change; AFP incubated with Ru(bpy)3 2+/Apt@GO at 37 °C for 1 h, DPV on VMSF/ITO; buffer, salt and pH not given in the material
[2] = target: PSA (printed as preprostate antigen) (UniProt P07288 25-261); test: as above
[3] = target: neutrophil gelatinase-associated lipocalin (NGAL) (UniProt P80188 21-198); test: as above
[4] = target: T1, alpha-fetoprotein (AFP) (UniProt P02771 19-609); test: electrochemical aptasensor (DPV), aptamer release from graphene oxide; Ru(bpy)3 2+/Apt@GO probe; linear 1 pg/mL-1000 ng/mL, LOD 0.8 pg/mL (not a Kd); AFP incubated with Ru(bpy)3 2+/Apt@GO at 37 °C for 1 h, DPV on VMSF/ITO; buffer, salt and pH not given in the material
T1 sequence: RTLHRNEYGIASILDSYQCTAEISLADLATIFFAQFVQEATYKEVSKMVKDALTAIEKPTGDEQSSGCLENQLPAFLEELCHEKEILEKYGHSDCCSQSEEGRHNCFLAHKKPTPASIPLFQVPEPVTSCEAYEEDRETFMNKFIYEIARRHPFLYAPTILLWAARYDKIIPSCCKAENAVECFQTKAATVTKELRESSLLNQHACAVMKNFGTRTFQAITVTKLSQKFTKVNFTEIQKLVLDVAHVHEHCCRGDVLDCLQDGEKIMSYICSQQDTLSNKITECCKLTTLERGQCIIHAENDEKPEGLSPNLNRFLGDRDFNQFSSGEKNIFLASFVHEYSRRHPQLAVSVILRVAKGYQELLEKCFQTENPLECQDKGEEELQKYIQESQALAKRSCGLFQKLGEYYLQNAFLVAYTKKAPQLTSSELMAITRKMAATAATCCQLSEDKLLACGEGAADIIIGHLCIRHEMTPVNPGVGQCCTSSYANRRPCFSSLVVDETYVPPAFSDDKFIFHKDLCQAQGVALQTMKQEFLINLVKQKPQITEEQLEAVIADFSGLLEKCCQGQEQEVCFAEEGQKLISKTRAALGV

Sequence of PSA (printed as preprostate antigen) (P07288 25-261): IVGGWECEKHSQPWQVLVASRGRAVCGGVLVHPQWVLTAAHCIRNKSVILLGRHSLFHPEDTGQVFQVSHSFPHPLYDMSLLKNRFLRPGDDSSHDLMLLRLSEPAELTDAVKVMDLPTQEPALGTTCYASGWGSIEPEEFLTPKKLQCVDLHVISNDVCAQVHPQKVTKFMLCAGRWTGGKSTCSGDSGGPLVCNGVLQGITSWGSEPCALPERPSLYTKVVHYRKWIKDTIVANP
Sequence of carcinoembryonic antigen (CEA) (P06731 35-685): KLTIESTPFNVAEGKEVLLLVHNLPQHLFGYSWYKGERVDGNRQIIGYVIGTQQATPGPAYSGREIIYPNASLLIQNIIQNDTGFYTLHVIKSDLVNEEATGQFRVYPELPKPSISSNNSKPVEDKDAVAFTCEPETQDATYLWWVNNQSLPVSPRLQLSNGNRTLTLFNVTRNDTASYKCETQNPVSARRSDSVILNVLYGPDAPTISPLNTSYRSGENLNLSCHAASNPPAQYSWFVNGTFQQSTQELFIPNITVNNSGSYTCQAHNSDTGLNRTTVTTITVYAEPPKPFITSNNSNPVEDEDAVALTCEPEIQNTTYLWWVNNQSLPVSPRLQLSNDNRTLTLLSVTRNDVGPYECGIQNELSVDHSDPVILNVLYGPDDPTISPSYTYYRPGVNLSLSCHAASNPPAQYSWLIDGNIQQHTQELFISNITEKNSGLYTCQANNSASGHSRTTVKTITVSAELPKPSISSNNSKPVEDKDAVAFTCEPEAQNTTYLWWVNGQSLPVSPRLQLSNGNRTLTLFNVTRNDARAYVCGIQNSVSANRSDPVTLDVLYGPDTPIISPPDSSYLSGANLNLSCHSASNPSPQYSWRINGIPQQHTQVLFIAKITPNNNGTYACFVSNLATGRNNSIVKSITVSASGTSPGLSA
Sequence of neutrophil gelatinase-associated lipocalin (NGAL) (P80188 21-198): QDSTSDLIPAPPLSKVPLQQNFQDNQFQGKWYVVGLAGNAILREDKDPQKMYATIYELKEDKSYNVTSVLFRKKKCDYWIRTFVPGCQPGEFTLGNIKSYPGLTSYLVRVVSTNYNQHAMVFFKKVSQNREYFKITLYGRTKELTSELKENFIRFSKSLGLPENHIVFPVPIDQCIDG

B1: AFP aptamer (Apt) (ssDNA)
DNA: ATCAGGTGCAGTTCTCGACTCGGTCTTGATGTGGG
B1: no binding [1]; no binding [2]; no binding [3]. B1: binds [4].
